B1: ALLNIKVKL (keratin 18 365-373) (peptide)
peptide: ALLNIKVKL
notes: Found in tumors of both patients RCC01 and RCC13; also called keratin 18 peptide
B2: SVASTITGV (adipose differentiation-related protein 129-137) (peptide)
peptide: SVASTITGV
notes: Also synthesized (Fmoc) for tetramers and pulsing; also called adipophilin-peptide; adipophilin fragment
B3: YVDPVITSI (met proto-oncogen 654-662) (peptide)
peptide: YVDPVITSI
notes: Found in tumors of both patients RCC01 and RCC13; also synthesized (Fmoc) for tetramers and pulsing; also called c-Met-peptide; c-Met-protooncogene-fragment

The target of this assay is T1, recombinant HLA-A*0201-molecules (human).
T1 construct: Folded in vitro with the peptides, purified by gel filtration
As to the kind of experiment: in vitro folding of HLA-A*0201 with peptide, gel filtration. On the technique in general: Size exclusion chromatography separates by hydrodynamic size, large species first.
Turning to B1, the binding result is reported as “binds”.

For B2, the binding result is on record as “binds”.

Take B3: the binding result is recorded as “binds”.

The values above are taken from patent US20050222390A1 (IMMATICS BIOTECHNOLOGIES, published 2005).
